The values below come from article PMC5638942.

One assay concerns the target PTHR1 (Homo sapiens) (UniProt Q03431). Put plainly: radioligand competition. The following applies: cited from earlier work.
Assay [1] concerns the target PTH1 receptor (PTHR1), recombinant, on transfected HEK 293a cells (UniProt Q03431).

Sequence of PTH (P01270 32-115): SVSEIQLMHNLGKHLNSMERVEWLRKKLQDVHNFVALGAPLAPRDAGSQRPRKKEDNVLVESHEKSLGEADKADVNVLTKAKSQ

As for PTH1-34 1-34 (from UniProt P01270), the Ki with PTHR1 (Homo sapiens) is 4 nM.

On to PTH (from UniProt P01270), for which the Ki with PTHR1 (Homo sapiens) is 2 nM.

Take “PTH-HRP (prepro-PTH(1-84) fused to the N-terminus of horseradish peroxidase, N175S mutant) (from UniProt P01270 32-115) (ligand)”: the potency in cyclic AMP generation (10 min) in HEK 293a cells expressing PTHR1, against PTH(1-34) in assay [1] stood at 5 fold.
